Data taken from US8507651B2, “Treatment of diseases and conditions mediated by increased phosphorylation” (DMI Acquisition Corp., priority 2002, dated 2013).

B1: chicken egg yolk phosvitin (dephosphorylated): Phosvitin extracted from the yolks of chicken eggs and dephosphorylated; estimated about 20-50% dephosphorylated (protein, UniProt P02845 1112-1328, looked up)
Phosvitin: AEFGTEPDAKTSSSSSSASSTATSSSSSSASSPNRKKPMDEEENDQVKQARNKDASSSSRSSKSSNSSKRSSSKSSNSSKRSSSSSSSSSSSSRSSSSSSSSSSNSKSSSSSSKSSSSSSRSRSSSKSSSSSSSSSSSSSSKSSSSRSSSSSSKSSSHHSHSHHSGHLNGSSSSSSSSRSVSHHSHEHHSGHLEDDSSSSSSSSVLSKIWGRHEIYQ
modifications: Phosvitin partially dephosphorylated
notes: Phosvitin extracted from the yolks of chicken eggs and dephosphorylated; estimated about 20-50% dephosphorylated
B2: Sigma phosvitin (untreated): Chicken phosvitin purchased from Sigma Chemical Co., used as received without dephosphorylation (protein, UniProt P02845 1112-1328, looked up)
Phosvitin: AEFGTEPDAKTSSSSSSASSTATSSSSSSASSPNRKKPMDEEENDQVKQARNKDASSSSRSSKSSNSSKRSSSKSSNSSKRSSSSSSSSSSSSRSSSSSSSSSSNSKSSSSSSKSSSSSSRSRSSSKSSSSSSSSSSSSSSKSSSSRSSSSSSKSSSHHSHSHHSGHLNGSSSSSSSSRSVSHHSHEHHSGHLEDDSSSSSSSSVLSKIWGRHEIYQ
modifications: Phosvitin
notes: Chicken phosvitin purchased from Sigma Chemical Co., used as received without dephosphorylation

Test system: IL-8 release by Jurkat cells
Test: Inhibition of IL-8 release from PMA/ionomycin-stimulated Jurkat cells, IL-8 ELISA of supernatants (Example 1)
Type: cell-based, human
Details: PMA and ionomycin; for IL-8 / Percent Inhibition Of IL-8 Release: 24 hours; for IL-8: positive control 1119.2; for Percent Inhibition Of IL-8 Release: vs positive control; for Inhibition of IL-8 release as compared to the positive control (in words): summary of Table 1
Procedure: Jurkat cells (American Type Culture Collection (ATCC), Rockville, Md.) were cultured (1×10^6 cells per 0.5 ml culture) in IMDM culture medium (ATCC) containing insulin transferrin selenite solution (ITSS; Sigma) with and without phosvitin or BSA at 37° C., 5% CO2, for 30 minutes. Then, phorbol-12-myristate-13-acetate (PMA; […]; Sigma) and ionomycin ([…]; Sigma) were added to stimulate the cells, and the cells were further cultured at 37° C., 5% CO2, for 24 hours.
Cell culture supernatants were analyzed for IL-8 content by ELISA. The IL-8 ELISA was performed as follows. Anti-human IL-8 antibody (Pierce Endogen, Rockford, Ill.; catalogue number M801-E, lot number CK41959) was diluted to 1 μg/ml in phosphate buffered saline, pH 7.2-7.4, and 100 μl of the diluted antibody was added to each well of Nunc Maxisorb ELISA strip plates. The plates were incubated overnight at room temperature. The liquid was aspirated from the wells, and the plates were blotted on a paper towel. Then, 200 μl of assay buffer (phosphate buffered saline, pH 7.2-7.4, containing 4% BSA) were added to each well, and the plates were incubated for 1 hour at room temperature. The liquid was aspirated from the wells, and the wells were washed 3 times with wash buffer (50 mM Tris, 0.2% Tween-20, pH 7.9-8.1) and were then blotted on a paper towel. Standards and supernatant samples (50 μl/well; standards were diluted in assay buffer) were added to the wells, and the plates were incubated for 1 hour at room temperature with gentle shaking. The liquid was aspirated, the wells were washed 3 times with wash buffer, and the plates were then blotted on a paper towel. Then, 100 μl of biotin-labeled anti-human IL-8 (Pierce Endogen, Rockford, Ill.; catalogue number M802-E, lot number CE49513), diluted to 60 ng/ml in assay buffer, were added to each well. The plates were incubated for 1 hour at room temperature, the liquid was aspirated, the wells were washed 3 times with wash buffer, and the plates were blotted on a paper towel. Then, 100 μl of HRP-conjugated streptavidin (Pierce Endogen, Rockford, Ill.; catalogue number N100) in assay buffer, were added to each well. The plates were incubated for 30 minutes at room temperature, the liquid was aspirated, the wells were washed 3 times with wash buffer, and the plates were blotted on a paper towel. Finally, 100 μl of TMB substrate solution (Pierce Endogen, Rockford, Ill.; catalogue number N301) were added to each well. The plates were incubated for 30 minutes at room temperature. The reaction was stopped by adding 100 μl/well of 0.18 M H2SO4. The optical densities at 450 mu and 530 nm were read on an ELISA plate reader and the difference (OD 450-OD 530) calculated.

| Molecule | IL-8 (1.0 mg/ml sample) [pg/mL] | Percent Inhibition Of IL-8 Release (1.0 mg/ml sample) [%] | Inhibition of IL-8 release as compared to the positive control (in words) | IL-8 (0.1 mg/ml sample) [pg/mL] | Percent Inhibition Of IL-8 Release (0.1 mg/ml sample) [%] | IL-8 (0.5 mg/ml sample) [pg/mL] | Percent Inhibition Of IL-8 Release (0.5 mg/ml sample) [%] |
| --- | --- | --- | --- | --- | --- | --- | --- |
| Sigma BSA (untreated): Bovine serum albumin from Sigma (ELIS grade, low fatty acid and IgG), used as received [reference compound] | 1048.1 | 6.3 | did not significantly inhibit the release of IL-8 |  |  |  |  |
| B1 | 686.9 | 38.6 | inhibited IL-8 release as compared to the positive control in a dose-dependent fashion | 1024.7 | 6.4 | 830.4 | 25.8 |
| B2 | 1153.6 | 0 | did not significantly inhibit the release of IL-8 |  |  |  |  |
